How the values were obtained:
[1] = target: T1, human CD8 on human T cells (human, UniProt P01732 22-235); assay: cell-based or functional assay
[2] = target: T1, human CD8 on human T cells; assay: flow cytometry on human CD8+ T cells, titration
Protocol: (§1) The 24 humanized 02A01-derived anti-CD8 antibodies (excluding 02A01-VK3(D30E/N35Q)) were screened for their ability to bind human CD8 by evaluating binding to CD8+ T cells. The non-humanized parent (“02-Parent”) and the non-humanized parent comprising a heavy chain M39L liability mutation (“02-Parent-VH-M39L”) were used as controls. […] Cells were washed with 1×phosphate buffered saline (PBS) containing 1 mg/mL bovine serum albumin (PBS/BSA) and then stained with a 1:100 dilution of DyLight650-conjugated anti-human IgG H+L polyclonal antibody (ThermoFisher cat. no. Sa5-10129) in PBS/BSA. Following a 20-30 min incubation at 4° C., the cells were washed once with PBS/BSA, and then resuspended in PBS/BSA for analysis on a FACSCelesta using Diva software (BD Biosciences). The resulting data were analyzed using FlowJo. Data were quantified and reported as Max fluorescence intensity (MFI) of human IgG-Fc. […] Complete replacement of the HCDR1 (antibodies comprising VH5) eliminated binding to the CD8+ T cells.
(§2) Binding to human CD8+ T cells was tested at 7 serial 5-fold dilutions of each tested humanized 02A01 variant (from 50 nM to 3.2 pM). The resulting data were analyzed using FlowJo.

[3] = target: T1, human CD8 on human T cells; assay: flow cytometry on human CD8+ T cells, titration, apparent KD
Protocol: as §1, §2

T1 sequence (P01732 22-235): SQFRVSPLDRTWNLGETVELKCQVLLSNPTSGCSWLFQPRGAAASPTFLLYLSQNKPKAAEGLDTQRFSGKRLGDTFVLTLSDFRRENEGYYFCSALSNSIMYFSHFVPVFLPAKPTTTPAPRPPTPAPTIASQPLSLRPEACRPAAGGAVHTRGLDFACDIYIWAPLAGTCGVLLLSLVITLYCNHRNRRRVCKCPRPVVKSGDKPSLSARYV

B1: 02A01-IgG-IL12 (HC) (other)
VH: EVQLQQSGPELVKPGASLKISCKASGYTFTDFTMHWVKQSHGKSLEWIGLVNPNNGGNIYNQNFKGKATLTVDTSSSTAYMELRSLTSEDSSVYYCGRVPLYTSHGMDYWGQGTSVTVSS
VL: DIVLTQSPAFLAVSLGQRATISCRASESVDSYDINSMHWYQQKPGQPPKLLIYRASHLQSGIPARFSGSGSRTDFTLTINFVEADDVATYYCQQSNEDPLTFGAGTKLELK
- EC50 of pSTAT4 signaling in human CD8+ T cells [1]: 3.03 pM

B2: 02A01-Fab-Fc-IL12 (LC) (other)
VH: EVQLQQSGPELVKPGASLKISCKASGYTFTDFTMHWVKQSHGKSLEWIGLVNPNNGGNIYNQNFKGKATLTVDTSSSTAYMELRSLTSEDSSVYYCGRVPLYTSHGMDYWGQGTSVTVSS
VL: DIVLTQSPAFLAVSLGQRATISCRASESVDSYDINSMHWYQQKPGQPPKLLIYRASHLQSGIPARFSGSGSRTDFTLTINFVEADDVATYYCQQSNEDPLTFGAGTKLELK
- EC50 of pSTAT4 signaling in human CD8+ T cells [1]: 2.11 pM

B3: 02A01-Fab-IL12 (LC) (other)
VH: EVQLQQSGPELVKPGASLKISCKASGYTFTDFTMHWVKQSHGKSLEWIGLVNPNNGGNIYNQNFKGKATLTVDTSSSTAYMELRSLTSEDSSVYYCGRVPLYTSHGMDYWGQGTSVTVSS
VL: DIVLTQSPAFLAVSLGQRATISCRASESVDSYDINSMHWYQQKPGQPPKLLIYRASHLQSGIPARFSGSGSRTDFTLTINFVEADDVATYYCQQSNEDPLTFGAGTKLELK
- EC50 of pSTAT4 signaling in human CD8+ T cells [1]: 1.74 pM

B4: 03A01-IgG-IL12 (HC) (other)
VH: DVQFQESGPGLVKPSQSLSLTCTVTGYSITSDFAWNWIRQFPGNELEWMGYISYSGDTNYNPSLRSRISITRDTSKNQFFLQLDSVTTEDTATYYCTIRGYYTDSAFVFWGQGTLVTVSA
VL: DIQMTQSSSYLSVSLGGRVTITCKASDHINNWLAWYQQKPGNAPRLLISGATSLETGVPSRFTGSGSGLDYTLSITSLQTEDVATYYCQQYWNSPFTFGSGTKLEIK
- EC50 of pSTAT4 signaling in human CD8+ T cells [1]: 15.7 pM

B5: 03A01-Fab-Fc-IL12 (LC) (other)
VH: DVQFQESGPGLVKPSQSLSLTCTVTGYSITSDFAWNWIRQFPGNELEWMGYISYSGDTNYNPSLRSRISITRDTSKNQFFLQLDSVTTEDTATYYCTIRGYYTDSAFVFWGQGTLVTVSA
VL: DIQMTQSSSYLSVSLGGRVTITCKASDHINNWLAWYQQKPGNAPRLLISGATSLETGVPSRFTGSGSGLDYTLSITSLQTEDVATYYCQQYWNSPFTFGSGTKLEIK
- EC50 of pSTAT4 signaling in human CD8+ T cells [1]: 13.4 pM

B6: 03A01-Fab-IL12 (LC) (other)
VH: DVQFQESGPGLVKPSQSLSLTCTVTGYSITSDFAWNWIRQFPGNELEWMGYISYSGDTNYNPSLRSRISITRDTSKNQFFLQLDSVTTEDTATYYCTIRGYYTDSAFVFWGQGTLVTVSA
VL: DIQMTQSSSYLSVSLGGRVTITCKASDHINNWLAWYQQKPGNAPRLLISGATSLETGVPSRFTGSGSGLDYTLSITSLQTEDVATYYCQQYWNSPFTFGSGTKLEIK
- EC50 of pSTAT4 signaling in human CD8+ T cells [1]: 11.1 pM

B7: humanized 02A01-VH2-VK3 (antibody, human IgG1, V domains shown)
VH: EVQLVQSGAEVKKPGATLKISCKASGYTFTDFTMHWVQQAPGKGLEWIGLVNPNNGGNIYNQNFKGRATLTVDTSTSTAYMELSSLRSEDTSVYYCGRVPLYTSHGMDYWGQGTLVTVSS
VL: EIVLTQSPATLSLSPGERATISCRASESVDSYDINSMHWYQQKPGQAPRLLIYRASHLQSGIPARFSGSGSRTDFTLTISSLEPEDFATYYCQQSNEDPLTFGQGTKLEIK
notes: human IgG1 format; also called 02-VH2-VK3
- Fold Change to Parental Apparent KD [2]: 1.18 fold
- Maximum CD8+ T cell Binding (MFI) [2]: 2880 MFI
- Kd [3]: 0.067 nM

B8: humanized 02A01-VH1-VK4 (antibody, human IgG1, V domains shown)
VH: EVQLVQSGPEVVKPGATLKISCKASGYTFTDFTMHWVKQAPGKSLEWIGLVNPNNGGNIYNQNFKGRATLTVDTSTSTAYMELSSLRSEDTSVYYCGRVPLYTSHGMDYWGQGTLVTVSS
VL: EIVLTQSPATLSVSPGERATISCRASESVDSYDINSMHWYQQKPGQAPRLLIYDASNRATGIPARFSGSGSRTDFTLTISSVEPEDFATYYCQQSNEDPLTFGQGTKLEIK
notes: human IgG1 format; also called 02-VH1-VK4
- Fold Change to Parental Apparent KD [2]: 0.89 fold
- Maximum CD8+ T cell Binding (MFI) [2]: 2050 MFI
- Kd [3]: 0.051 nM

B9: humanized 02A01-VH2-VK4 (antibody, human IgG1, V domains shown)
VH: EVQLVQSGAEVKKPGATLKISCKASGYTFTDFTMHWVQQAPGKGLEWIGLVNPNNGGNIYNQNFKGRATLTVDTSTSTAYMELSSLRSEDTSVYYCGRVPLYTSHGMDYWGQGTLVTVSS
VL: EIVLTQSPATLSVSPGERATISCRASESVDSYDINSMHWYQQKPGQAPRLLIYDASNRATGIPARFSGSGSRTDFTLTISSVEPEDFATYYCQQSNEDPLTFGQGTKLEIK
notes: human IgG1 format; also called 02-VH2-VK4
- Fold Change to Parental Apparent KD [2]: 0.89 fold
- Maximum CD8+ T cell Binding (MFI) [2]: 2040 MFI
- Kd [3]: 0.051 nM

B10: humanized 02A01-VH4-VK4 (antibody, human IgG1, V domains shown)
VH: EVQLVQSGAEVKKPGATVKISCKASGYTFTDFTMHWVQQAPGKGLEWIGLVNPNNGGNIYAEKFQGRATLTVDTSTSTAYMELSSLRSEDTAVYYCGRVPLYTSHGMDYWGQGTLVTVSS
VL: EIVLTQSPATLSVSPGERATISCRASESVDSYDINSMHWYQQKPGQAPRLLIYDASNRATGIPARFSGSGSRTDFTLTISSVEPEDFATYYCQQSNEDPLTFGQGTKLEIK
notes: human IgG1 format; also called 02-VH4-VK4
- Fold Change to Parental Apparent KD [2]: 1.04 fold
- Maximum CD8+ T cell Binding (MFI) [2]: 1640 MFI
- Kd [3]: 0.059 nM

B11: humanized 02A01-VH3-VK4 (antibody, human IgG1, V domains shown)
VH: EVQLVQSGAEVKKPGATLKISCKASGYTFTDFTMHWVQQAPGKGLEWIGLVNPNNGGNIYAEKFQGRATLTVDTSTSTAYMELSSLRSEDTSVYYCGRVPLYTSHGMDYWGQGTLVTVSS
VL: EIVLTQSPATLSVSPGERATISCRASESVDSYDINSMHWYQQKPGQAPRLLIYDASNRATGIPARFSGSGSRTDFTLTISSVEPEDFATYYCQQSNEDPLTFGQGTKLEIK
notes: human IgG1 format; also called 02-VH3-VK4
- Fold Change to Parental Apparent KD [2]: 1.16 fold
- Maximum CD8+ T cell Binding (MFI) [2]: 1560 MFI
- Kd [3]: 0.066 nM

B12: humanized 02A01-VH4-VK1 (antibody, human IgG1, V domains shown)
VH: EVQLVQSGAEVKKPGATVKISCKASGYTFTDFTMHWVQQAPGKGLEWIGLVNPNNGGNIYAEKFQGRATLTVDTSTSTAYMELSSLRSEDTAVYYCGRVPLYTSHGMDYWGQGTLVTVSS
VL: EIVLTQSPATLSVSPGERATISCRASESVDSYDINSMHWYQQKPGQPPRLLIYRASHLQSGIPARFSGSGSRTDFTLTISSVEPEDFATYYCQQSNEDPLTFGQGTKLEIK
notes: human IgG1 format; also called 02-VH4-VK1
- Fold Change to Parental Apparent KD [2]: 0.86 fold
- Maximum CD8+ T cell Binding (MFI) [2]: 2810 MFI
- Kd [3]: 0.049 nM

B13: humanized 02A01-VH6-VK4 (antibody, human IgG1, V domains shown)
VH: EVQLVQSGAEVKKPGATVKISCKASGYTFTDFTMHWVQQAPGKGLEWIGLVNPNNGGNIYAEKFQGRVTLTVDTSTSTAYMELSSLRSEDTAVYYCGRVPLYTSHGMDYWGQGTLVTVSS
VL: EIVLTQSPATLSVSPGERATISCRASESVDSYDINSMHWYQQKPGQAPRLLIYDASNRATGIPARFSGSGSRTDFTLTISSVEPEDFATYYCQQSNEDPLTFGQGTKLEIK
notes: human IgG1 format; also called 02-VH6-VK4
- Fold Change to Parental Apparent KD [2]: 1.12 fold
- Maximum CD8+ T cell Binding (MFI) [2]: 1690 MFI
- Kd [3]: 0.064 nM

Reference: patent publication US20260055186A1 (REPERTOIRE IMMUNE MEDICINES, published 2026)
